Test results taken from patent publication US20180265882, “PLANTS WITH INCREASED SEED SIZE” (THE INSTITUTE OF GENETICS AND DEVELOPMENTAL BIOLOGY, published 2018).

T1: SOD7 (NGAL2, At3g11580) (Arabidopsis thaliana, UniProt Q8RYD3 SEQ:1-267)
T1 sequence: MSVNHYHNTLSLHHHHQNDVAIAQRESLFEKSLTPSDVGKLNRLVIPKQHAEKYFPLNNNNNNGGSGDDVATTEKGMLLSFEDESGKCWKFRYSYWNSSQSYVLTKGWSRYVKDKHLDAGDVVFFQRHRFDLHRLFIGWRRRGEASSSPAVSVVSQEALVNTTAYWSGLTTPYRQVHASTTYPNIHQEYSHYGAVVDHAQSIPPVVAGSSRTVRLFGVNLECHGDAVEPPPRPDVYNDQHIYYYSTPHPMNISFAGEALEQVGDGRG

B1: KLU promoter probe A (dsDNA)
DNA 1: TTCTACTACACTTGCTCTCTGTA
DNA 2: TACAGAGAGCAAGTGTAGTAGAA
B2: KLU promoter probe A-m (dsDNA)
DNA 1: TTCTACTAACACCTCTCTCTGTA
DNA 2: TACAGAGAGAGGTGTTAGTAGAA

Experiments:
SOD7 (NGAL2, At3g11580) [1] = biological target: T1, SOD7 (NGAL2, At3g11580); assay: EMSA; binding reduced by unlabeled probe A; settings: tags: N-terminal MBP fusion (pMAL-C2), expressed in E. coli BL21(DE3), amylose purified; label: biotin
Procedure: (§1) (A) Expression dynamics of SOD7 and KLU in pER8-SOD7 transgenic plants treated with β-estradiol for 0, 4 and 8 hours. Means were calculated from three biological samples. Values are given as mean±SD. **, P<0.01, compared with the expression level of KLU and SOD7 at 0 hour, respectively (Student's t-test). (B) A 2-kb promoter region of KLU upstream of its ATG codon contains a CACTTG sequence. PF1 and PF2 represent PCR fragments used for ChIP-quantitative PCR analysis. A and A-m indicate the wild-type probe and the mutated probe used in the EMSA essay, respectively. […] Chromatin from 35S:GFP and 35S:GFP-SOD7 transgenic plants was immunoprecipitated by anti-GFP, and the enrichment of the fragments was determined by quantitative real-time PCR. The ACTIN7 promoter was used as a negative control. The fold enrichment was normalized to the ACTIN7 amplicon, set at 1. Means were calculated from three biological samples. Values are given as mean±SD. **, P<0.01, compared with 35S:GFP transgenic plants (Student's t-test). (D) Direct interaction between SOD7 and the KLU promoter determined by EMSA. […] The retarded DNA-protein complex was reduced by competition using the unlabeled probe A.
(§2) The coding sequence of SOD7 was cloned into the NdeI and BamHI sites of the pMAL-C2 vector to generate the construct MBP-SOD7. […]

SOD7 (NGAL2, At3g11580) [2] = biological target: T1, SOD7 (NGAL2, At3g11580); assay: EMSA; mutated CACTTG, failed to bind; settings: tags: N-terminal MBP fusion (pMAL-C2), expressed in E. coli BL21(DE3), amylose purified; label: biotin
Procedure: as §1, §2

Row | Binder | binding result (SOD7 (NGAL2, At3g11580) [1]) | binding result (SOD7 (NGAL2, At3g11580) [2])
1 | B1 | binds | 
2 | B2 |  | no binding
